Assay [1] deals with Fc gamma macrophage receptors. The assay is described as follows: flow cytometry on human macrophages, hybrid 5 µg/ml, 20 h at 37°C, anti-Fc-FITC. (In flow cytometry, cells or beads pass a laser one at a time.)
Assay [2] concerns the target Fc gamma macrophage receptors. The experiment in a line: flow cytometry on human macrophages, hybrid 5 µg/ml, 2 h at 37°C, anti-Fc-FITC.
In assay [3] the target is Fc gamma receptors of NK cells. The assay is described as follows: cell-based or functional assay.
Assay [4] has as its target Fc gamma receptors of NK cells. The experiment in a line: cytofluorimetry on NK cells, labelled Fc 10 µg/ml, 30 min at 37°C, no IgG.
The target of assay [5] is Fc gamma macrophage receptors. The assay is described as follows: cell-based or functional assay.
The target in assay [6] is Fc gamma receptors of NK cells. The experiment in a line: cytofluorimetry on NK cells, 48 h at 37°C.
Assay [7] deals with Fc gamma receptors of NK cells. The assay is described as follows: cytofluorimetry on NK cells, 30 min at 37°C.
The target of assay [8] is Fc gamma receptors of NK cells. The experiment in a line: cytofluorimetry on NK cells, 24 h at 37°C.
The target of assay [9] is Fc gamma receptors of NK cells. The experiment in a line: competition, cytofluorimetry on NK cells: labelled FcSDHFSTIE-N3-DBCO-A647 10 µg/ml with human IgG 10 µg/ml.
Assay [10] concerns the target Fc gamma receptors of NK cells. The assay is described as follows: competition, cytofluorimetry on NK cells: labelled FcSDHFSTIE-N3-DBCO-A647 10 µg/ml with human IgG 1000 µg/ml; ratio to NEG.
The target of assay [11] is Fc gamma receptors of NK cells. The experiment in a line: competition, cytofluorimetry on NK cells: labelled FcSDHFSTIE-N3-DBCO-A647 10 µg/ml with human IgG 100 µg/ml; ratio to NEG.
In assay [12] the target is Fc gamma receptors of NK cells. The experiment in a line: competition, cytofluorimetry on NK cells: labelled FcSDHFSTIE-N3-DBCO-A647 10 µg/ml with human IgG 100 µg/ml.
Assay [13] has as its target Fc gamma receptors of NK cells. The assay is described as follows: competition, cytofluorimetry on NK cells: labelled FcSDHFSTIE-N3-DBCO-A647 10 µg/ml with human IgG 10 µg/ml; ratio to NEG.
Assay [14] has as its target Fc gamma receptors of NK cells. The experiment in a line: competition, cytofluorimetry on NK cells: labelled FcSDHFSTIE-N3-DBCO-A647 10 µg/ml with human IgG 1000 µg/ml.
Assay [15] has as its target Fc gamma receptors of NK cells. The experiment in a line: competition, cytofluorimetry on NK cells: labelled FcSDHFSTIE-N3-DBCO-A647 10 µg/ml with human IgG 1 µg/ml.
For assay [16], the target named is Fc gamma receptors of NK cells. The experiment in a line: competition, cytofluorimetry on NK cells: labelled FcSDHFSTIE-N3-DBCO-A647 10 µg/ml with human IgG 10000 µg/ml.
In assay [17] the target is Fc gamma receptors of NK cells. The experiment in a line: competition, cytofluorimetry on NK cells: labelled FcSDHFSTIE-N3-DBCO-A647 10 µg/ml with human IgG 1 µg/ml; ratio to NEG.
In assay [18] the target is Fc gamma receptors of NK cells. The assay is described as follows: competition, cytofluorimetry on NK cells: labelled FcSDHFSTIE-N3-DBCO-A647 10 µg/ml with human IgG 10000 µg/ml; ratio to NEG.

Regarding “Fc-LALA-β60-74cit (from UniProt P01857 104-330) (Fc fusion)”, the values for the Macrophages (fluorescence by cytofluorimetry) in assay [1] and in assay [2] were 404 and 502, respectively.
On to “FcLALAPG-β60-74 (from UniProt P01857 104-330) (Fc fusion)”, for which, in assay [3], the % expression of CD107a (NK cell degranulation) was found to be 2.2%.
The same measure, in the same setting: in the case of “Fc-WT-PEG-β60-74cit (from UniProt P01857 104-330) (Fc fusion)” it was 1.8%.
In the case of “FcSDHFSTIE-N3-DBCO-A647 (from UniProt P01857 104-330)”, the MFI in [4] was determined as 38500.
The substance “Fc-WT-PEG-α621-635cit (from UniProt P01857 104-330) (Fc fusion)” registered an inhibition of phagocytosis by competing human IgG at 10 mg/ml in assay [5] of 50%.
Regarding “FcSDHFSTIE-N3-DBCO-A488 (from UniProt P01857 104-330)”, the MFI was determined as 1710 in assay [6], 2970 in assay [7] and 2350 in [8].
“Fc-WT-β60-74cit (from UniProt P01857 104-330) (Fc fusion)”: the Macrophages (fluorescence by cytofluorimetry) in [1] is 1000; in assay [2] it was 808.
On to “FcSDHFSTIE-N3-DBCO-PEG3-β60-74cit-lysineA488 (from UniProt P01857 104-330) (Fc fusion)”, for which the figures for the MFI in [6], in [7] and in [8] were 4340, 4590 and 4090, respectively.
As for human IgG (antibody), the MFI of FcSDHFSTIE-N3-DBCO-A647 with IgG as competitor in assay [9] worked out at 38800; in assay [12], 36300; in [14], 29500; in [15] it was 37900; in [16], 20500. Besides, the RATIO of FcSDHFSTIE-N3-DBCO-A647 with IgG as competitor is 139 in assay [10]; 171 in [11]; 183 in [13]; 179 in [17]; 96.6 in [18].

These data come from patent US20240307538A1.
